Experimental data from paper PMC3672285 (RNA Biology, 2013).

B1: His-tagged Rrp4 of S. solfataricus (natural protein, UniProt Q9UXC4 1-249, looked up)
chain: MNMSQSQKIVLQPRSIVVPGELLAEGEFQIPWSPYILKINSKYYSTVVGLFDVKDTQFEVIPLEGSFYYPKINDIVIGLVEDVEIYGWVVDIKAPYKAYLPASNLLGRSINVGEDLRRYLDVGDYVIARIENFDRSIDPVLSVKGKDLGRVSNGIVIDIMPVKVPRVIGKNKSMYETLTSKSGCSIFVANNGRIWATCPSRFSEEILIEAIRKIENESHIKGLTDRIKQFIEEKLGERNASSGETKTNS

How the values were obtained:
[1] = biological target: T1, Rrp41-Rrp42 hexamer, His-tagged subunits (S. solfataricus, UniProt Q9UXC2 1-248; Q9UXC0 1-275); experiment: co-IP
T1 sequence (looked up) 1: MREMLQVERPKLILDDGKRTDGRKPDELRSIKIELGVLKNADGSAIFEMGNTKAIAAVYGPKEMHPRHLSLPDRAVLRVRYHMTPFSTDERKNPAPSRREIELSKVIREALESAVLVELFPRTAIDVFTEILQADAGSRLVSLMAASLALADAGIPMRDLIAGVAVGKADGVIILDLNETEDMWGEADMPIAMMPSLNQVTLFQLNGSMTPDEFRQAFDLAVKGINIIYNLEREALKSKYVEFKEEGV
T1 sequence (looked up) 2: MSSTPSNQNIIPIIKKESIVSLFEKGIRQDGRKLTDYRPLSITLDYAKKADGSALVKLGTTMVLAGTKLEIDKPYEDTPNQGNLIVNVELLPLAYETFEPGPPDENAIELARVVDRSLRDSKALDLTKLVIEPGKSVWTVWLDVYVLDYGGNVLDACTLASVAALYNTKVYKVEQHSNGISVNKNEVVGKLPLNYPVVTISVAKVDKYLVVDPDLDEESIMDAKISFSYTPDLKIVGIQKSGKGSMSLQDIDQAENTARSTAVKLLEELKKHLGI

[2] = biological target: T2, His-tagged Rrp42 of S. solfataricus (S. solfataricus, UniProt Q9UXC0 1-275); experiment: SEC
T2 sequence (looked up): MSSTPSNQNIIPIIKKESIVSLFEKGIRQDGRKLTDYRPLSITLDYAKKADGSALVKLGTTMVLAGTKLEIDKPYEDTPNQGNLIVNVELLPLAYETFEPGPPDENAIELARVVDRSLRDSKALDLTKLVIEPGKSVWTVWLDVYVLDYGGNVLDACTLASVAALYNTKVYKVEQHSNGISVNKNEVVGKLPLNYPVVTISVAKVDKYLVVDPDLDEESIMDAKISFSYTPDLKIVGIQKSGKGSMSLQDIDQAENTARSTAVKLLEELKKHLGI

[3] = biological target: B1; experiment: pull-down
[4] = biological target: T3, Strep-Csl4-exosome (Strep-Csl4, His6-Rrp41, His6-Rrp42) (S. solfataricus, UniProt Q9UXC2 1-248; Q9UXC0 1-275; Q980J9 1-189); experiment: pull-down
T3 sequence (looked up) 1: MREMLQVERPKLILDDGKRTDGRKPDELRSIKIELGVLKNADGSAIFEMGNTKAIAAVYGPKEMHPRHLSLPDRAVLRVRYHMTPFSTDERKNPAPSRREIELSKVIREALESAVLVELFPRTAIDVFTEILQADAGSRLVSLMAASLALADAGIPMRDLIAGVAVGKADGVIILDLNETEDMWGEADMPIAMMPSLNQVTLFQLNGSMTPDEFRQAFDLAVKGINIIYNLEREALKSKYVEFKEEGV
T3 sequence (looked up) 2: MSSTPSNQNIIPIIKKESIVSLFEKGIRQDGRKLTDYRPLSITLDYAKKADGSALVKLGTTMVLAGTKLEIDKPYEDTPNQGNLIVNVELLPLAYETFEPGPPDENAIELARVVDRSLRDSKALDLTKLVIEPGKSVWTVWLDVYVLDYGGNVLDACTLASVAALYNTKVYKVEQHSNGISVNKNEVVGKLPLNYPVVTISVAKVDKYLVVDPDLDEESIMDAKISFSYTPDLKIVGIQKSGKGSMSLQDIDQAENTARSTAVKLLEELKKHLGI
T3 sequence (looked up) 3: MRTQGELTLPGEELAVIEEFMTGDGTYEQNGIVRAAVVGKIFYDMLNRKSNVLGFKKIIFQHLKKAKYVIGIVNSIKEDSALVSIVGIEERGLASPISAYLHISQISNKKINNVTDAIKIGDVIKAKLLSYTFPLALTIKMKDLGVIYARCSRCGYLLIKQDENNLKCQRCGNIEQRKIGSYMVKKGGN

Binder: B1
- binding result [1]: binds

B2: His-tagged Rrp41 of S. solfataricus (natural protein, UniProt Q9UXC2 1-248, looked up)
chain: MREMLQVERPKLILDDGKRTDGRKPDELRSIKIELGVLKNADGSAIFEMGNTKAIAAVYGPKEMHPRHLSLPDRAVLRVRYHMTPFSTDERKNPAPSRREIELSKVIREALESAVLVELFPRTAIDVFTEILQADAGSRLVSLMAASLALADAGIPMRDLIAGVAVGKADGVIILDLNETEDMWGEADMPIAMMPSLNQVTLFQLNGSMTPDEFRQAFDLAVKGINIIYNLEREALKSKYVEFKEEGV
- binding result [2]: binds

B3: His-tagged Csl4 of S. solfataricus (natural protein, UniProt Q980J9 1-189, looked up)
chain: MRTQGELTLPGEELAVIEEFMTGDGTYEQNGIVRAAVVGKIFYDMLNRKSNVLGFKKIIFQHLKKAKYVIGIVNSIKEDSALVSIVGIEERGLASPISAYLHISQISNKKINNVTDAIKIGDVIKAKLLSYTFPLALTIKMKDLGVIYARCSRCGYLLIKQDENNLKCQRCGNIEQRKIGSYMVKKGGN
- binding result [1]: binds

B4: Strep-tagged Csl4 of S. solfataricus (natural protein, UniProt Q980J9 1-189, looked up)
chain: MRTQGELTLPGEELAVIEEFMTGDGTYEQNGIVRAAVVGKIFYDMLNRKSNVLGFKKIIFQHLKKAKYVIGIVNSIKEDSALVSIVGIEERGLASPISAYLHISQISNKKINNVTDAIKIGDVIKAKLLSYTFPLALTIKMKDLGVIYARCSRCGYLLIKQDENNLKCQRCGNIEQRKIGSYMVKKGGN
- binding result [3]: binds

B5: His-tagged DnaG of S. solfataricus (natural protein, UniProt P95980 1-406, looked up)
chain: MSFQMKYDIRLRFEVEGIVEKTDVIGAIFGQTENLFGDEFDLRELQDKGRLGRIIVEVKTKGGKSEGEIIIPSNLDRIETALIAAMVESVDKVGPYNSKFELIEIEDIRAEKLKKIIERAKGILSSWSKEKSLDIKEVINEISSAVKVGEITEYGPERLPAGPDVDKDPNLIIVEGRADVINLLRYGYKNVIAVEGATSRIPETLINLSKMKKTVIAFLDGDHGGDLILKELLSNNVKIDFVARAPIGREVEELTGKEIAKALSNMMPLTQYLKKVQEAEQAIAKNVIAKEEKPIQSETTQQVVQITLPQNILEEIKKLPGTLEGVLYDNNWNLIEKVQVRDIIPKLEAYEDNKVAYIIFDGVITQRLLDLASQKNIKMIIGARIGGINKRPQNVDILTFTDIISS
- binding result [4]: binds
